Data taken from patent publication US20240201167A1 (ALBERT EINSTEIN COLLEGE OF MEDICINE, published 2024).
Changes are numbered by the printed parent chain.

T1: B7-1-hIgG1-biotin (human, UniProt P33681 35-233, biotin on the AVI tag (BirA))
T1 construct: Loaded on streptavidin beads; the paragraph gives residues only; also called B7-1-Fc-biotin; hB7-1 (residues 35-233) hIgG1-His10-AVI; not shown: C-terminal 10xHis and AVI tagged hIgG1 Fc domain
T1 chain: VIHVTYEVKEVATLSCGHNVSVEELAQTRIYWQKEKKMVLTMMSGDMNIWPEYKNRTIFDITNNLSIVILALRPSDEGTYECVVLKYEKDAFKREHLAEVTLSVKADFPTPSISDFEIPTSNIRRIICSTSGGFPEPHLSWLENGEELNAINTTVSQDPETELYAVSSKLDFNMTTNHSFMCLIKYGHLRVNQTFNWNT

T2: human B7-1 R63D on cells (Homo sapiens, UniProt P33681 35-280)
T2 construct: mCherry-tagged point mutant; also called ARG63 ASP
T2 chain: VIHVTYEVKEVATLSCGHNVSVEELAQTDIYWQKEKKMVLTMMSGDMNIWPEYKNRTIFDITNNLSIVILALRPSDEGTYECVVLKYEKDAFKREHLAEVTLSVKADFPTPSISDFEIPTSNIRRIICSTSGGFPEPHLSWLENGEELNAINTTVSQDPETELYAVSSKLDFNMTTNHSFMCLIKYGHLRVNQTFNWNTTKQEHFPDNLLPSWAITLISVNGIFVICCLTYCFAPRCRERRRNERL

T3: human B7-1 N82E on cells (Homo sapiens, UniProt P33681 35-280)
T3 construct: C-terminally fused to mCherry; also called ASN82 GLU
T3 chain: T2 chain with D29R, N48E

T4: human B7-1 K127D on cells (Homo sapiens, UniProt P33681 35-280)
T4 construct: mCherry-tagged point mutant; also called LYS127 ASP
T4 chain: T2 chain with D29R, K93D

T5: human B7-1 K120D on cells (Homo sapiens, UniProt P33681 35-280)
T5 construct: mCherry-tagged point mutant; also called LYS120 ASP
T5 chain: T2 chain with D29R, K86D

T6: human B7-1 K139D on cells (Homo sapiens, UniProt P33681 35-280)
T6 construct: mCherry-tagged point mutant; also called LYS139ASP; LYS139 ASP
T6 chain: T2 chain with D29R, K105D

T7: human B7-1 (CD80), full length, expressed on HEK 293 cells (Homo sapiens, UniProt P33681 35-280)
T7 construct: also called hB7-1; B7-1-mCherry
T7 sequence: T2 chain with D29R

T8: rat p75NTR expressed on cells (rat, UniProt P07174 30-425)
T8 construct: whole, on cells; also called rat p75NTR-GFP; rodent p75NTR
T8 sequence (looked up): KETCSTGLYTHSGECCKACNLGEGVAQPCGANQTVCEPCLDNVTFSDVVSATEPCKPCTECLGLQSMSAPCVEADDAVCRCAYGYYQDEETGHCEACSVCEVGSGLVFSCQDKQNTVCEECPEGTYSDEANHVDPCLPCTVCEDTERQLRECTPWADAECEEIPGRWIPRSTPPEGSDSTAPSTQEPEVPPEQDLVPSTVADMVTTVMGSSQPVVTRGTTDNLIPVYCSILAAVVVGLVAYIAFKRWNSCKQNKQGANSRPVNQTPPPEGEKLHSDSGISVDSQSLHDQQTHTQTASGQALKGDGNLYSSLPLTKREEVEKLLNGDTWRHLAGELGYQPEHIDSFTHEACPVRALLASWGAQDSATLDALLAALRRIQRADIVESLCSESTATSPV

T9: mouse p75NTR (mouse, UniProt Q9Z0W1 32-427)
T9 construct: whole, on cells; also called mouse p75NTR-GFP; murine p75
T9 sequence (looked up): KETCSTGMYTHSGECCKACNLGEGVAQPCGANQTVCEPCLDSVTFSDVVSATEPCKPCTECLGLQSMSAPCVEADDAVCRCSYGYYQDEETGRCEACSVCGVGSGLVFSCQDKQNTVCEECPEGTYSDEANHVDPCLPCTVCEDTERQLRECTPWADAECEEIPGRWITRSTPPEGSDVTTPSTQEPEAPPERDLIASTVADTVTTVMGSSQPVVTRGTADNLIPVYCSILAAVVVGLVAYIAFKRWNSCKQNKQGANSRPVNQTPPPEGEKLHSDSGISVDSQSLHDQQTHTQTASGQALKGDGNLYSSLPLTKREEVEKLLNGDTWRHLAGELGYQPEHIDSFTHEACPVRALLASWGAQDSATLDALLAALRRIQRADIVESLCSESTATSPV

B1: p75NTR-mIgG2a (Fc fusion)
chain: KEACPTGLYTHSGECCKACNLGEGVAQPCGANQTVCEPCLDSVTFSDVVSATEPCKPCTECVGLQSMSAPCVEADDAVCRCAYGYYQDETTGRCEACRVCEAGSGLVFSCQDKQNTVCEECPDGTYSDEANHVDPCLPCTVCEDTERQLRECTRWADAECEEIPGRWITRSTPPEGSDSTAPSTQEPEAPPEQDLIASTVAGVVTTVMGSSQPVVTRGTTDN
notes: Full-length ectodomain; also called p75-mIgG2A; recombinant p75 mIgG2a; not shown: C-terminal mIgG2a-His10 Fc domain
B2: human p75 neurotrophin receptor, full length, expressed on HEK 293 cells (receptor)
chain: KEACPTGLYTHSGECCKACNLGEGVAQPCGANQTVCEPCLDSVTFSDVVSATEPCKPCTECVGLQSMSAPCVEADDAVCRCAYGYYQDETTGRCEACRVCEAGSGLVFSCQDKQNTVCEECPDGTYSDEANHVDPCLPCTVCEDTERQLRECTRWADAECEEIPGRWITRSTPPEGSDSTAPSTQEPEAPPEQDLIASTVAGVVTTVMGSSQPVVTRGTTDNLIPVYCSILAAVVVGLVAYIAFKRWNSCKQNKQGANSRPVNQTPPPEGEKLHSDSGISVDSQSLHDQQPHTQTASGQALKGDGGLYSSLPPAKREEVEKLLNGSAGDTWRHLAGELGYQPEHIDSFTHEACPVRALLASWATQDSATLDALLAALRRIQRADLVESLCSESTATSPV
notes: Full-length human p75 with a cytosolic fluorescent tag (GFP); also called p75NTR; NGFR
B3: HVEM expressed on cells (receptor, human, UniProt Q92956 39-283, looked up)
chain: LPSCKEDEYPVGSECCPKCSPGYRVKEACGELTGTVCEPCPPGTYIAHLNGLSKCLQCQMCDPAMGLRASRNCSRTENAVCGCSPGHFCIVQDGDHCAACRAYATSSPGQRVQKGGTESQDTLCQNCPPGTFSPNGTLEECQHQTKCSWLVTKAGAGTSSSHWVWWFLSGSLVIVIVCSTVGLIICVKRRKPRGDVVKVIVSVQRKRQEAEGEATVIEALQAPPDVTTVAVEETIPSFTGRSPNH
notes: whole, on cells
B4: mouse B7-1 expressed on cells (ligand)
chain: VDEQLSKSVKDKVLLPCRYNSPHEDESEDRIYWQKHDKVVLSVIAGKLKVWPEYKNRTLYDNTTYSLIILGLVLSDRGTYSCVVQKKERGTYEVKHLALVKLSIKADFSTPNITESGNPSADTKRITCFASGGFPKPRFSWLENGRELPGINTTISQDPESELYTISSQLDFNTTRNHTIKCLIKYGDAHVSEDFTWEKPPEDPPDSKNTLVLFGAGFGAVITVVVIVVIIKCFCKHRSCFRRNEASRETNNSLTFGPEEALAEQTVFL
notes: Cytosolic mCherry tag; also called mouse B7-1-mCherry; rodent B7-1

Legend:
B7-1-hIgG1-biotin [1] = molecular target: T1, B7-1-hIgG1-biotin; assay: p75-mIgG2A titrated on streptavidin beads coated with B7-1-hIgG1-biotin; anti-mIgG2A, flow cytometry
Description: (§1) Binding was detected by flow cytometry on a SONY Spectral Analyzer (SA 3800). Binding curves were fit using the equation Y=Bmax*Xh/(Kdh+Xh).

B7-1-hIgG1-biotin [2] = molecular target: T1, B7-1-hIgG1-biotin; assay: Fc fusions titrated on streptavidin beads coated with B7-1-hIgG1-biotin, flow cytometry
Description: as §1

human B7-1 R63D on cells = molecular target: T2, human B7-1 R63D on cells; assay: cell-cell binding, flow cytometry; percent of the wild-type pair
human B7-1 N82E on cells = molecular target: T3, human B7-1 N82E on cells; assay: as above
[3] = molecular target: T4, human B7-1 K127D on cells; assay: as above
[4] = molecular target: T5, human B7-1 K120D on cells; assay: as above
[5] = molecular target: T6, human B7-1 K139D on cells; assay: as above
[6] = molecular target: T7, human B7-1 (CD80), full length, …; assay: as above
[7] = molecular target: T10, protein tyrosine phosphatase receptor type F expressed on cells (human, UniProt P10586 30-1907); assay: cell-cell screen, flow cytometry
T10 construct: whole, on cells; also called PTPRF; PTPRF mCherry
Experimental: (§2) As illustrated, cells were transfected with expression cassettes expressing labeled receptors or labeled ligands, receptor-expressing cells were mixed with ligand-expressing cells and cell-to-cell binding was monitored by detecting the labels associated with the receptor and the ligand. […] Binding was detected using an anti-mIgG2A ab and flow cytometry. The binding curves were fit and the Bmax, EC50, and hill coefficient were calculated using the equation Y=Bmax*Xh/(Kdh+Xh).

[8] = molecular target: T7, human B7-1 (CD80), full length, …; assay: cell-cell screen, flow cytometry
Experimental: as §2

[9] = molecular target: T8, rat p75NTR expressed on cells; assay: cell-cell binding, flow cytometry
[10] = molecular target: B2; assay: cell-cell binding, flow cytometry
mouse p75NTR = molecular target: T9, mouse p75NTR; assay: cell-cell binding, flow cytometry

Binder: B1
EC50 (B7-1-hIgG1-biotin [1]): 16 nM
fold higher EC50 than B7-1:CTLA-4 (B7-1-hIgG1-biotin [2]): ~30 fold

Binder: B2
percent binding (human B7-1 R63D on cells): 30%
percent binding (human B7-1 N82E on cells): 25%
percent binding [3]: 26%
percent binding [4]: 20%
percent binding [5]: 21%
percent binding [6]: 100%
binding result [7]: binds

Binder: B3
binding result [8]: no binding

Binder: B4
binding result [9]: no binding
binding result [10]: no binding
binding result (mouse p75NTR): no binding
